Data on two molecules can be found in PMC2668188, “In Vitro Recombination Catalyzed by Bacterial Class 1 Integron Integrase IntI1 Involves Cooperative Binding and Specific Oligomeric Intermediates”.

The target of data set [1] is T1, IntI1(His)6 integron integrase (Pseudomonas aeruginosa Pa695 (class 1 …, UniProt Q7BP41 1-337)).
T1 sequence: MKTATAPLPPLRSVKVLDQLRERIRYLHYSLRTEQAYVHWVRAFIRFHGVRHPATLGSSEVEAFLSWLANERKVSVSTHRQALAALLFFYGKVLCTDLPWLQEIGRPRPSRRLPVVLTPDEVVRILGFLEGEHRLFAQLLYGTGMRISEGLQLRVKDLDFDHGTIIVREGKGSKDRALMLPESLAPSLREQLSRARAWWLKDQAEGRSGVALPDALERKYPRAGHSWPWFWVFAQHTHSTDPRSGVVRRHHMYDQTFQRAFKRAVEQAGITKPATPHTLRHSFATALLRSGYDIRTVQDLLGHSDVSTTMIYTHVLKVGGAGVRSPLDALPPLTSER
Description: EMSA; EMSA: 0.1 pmol DNA, 1-15 pmol IntI1 in 20 µl, 20 min at 4°C, 1% agarose at 4°C; filter binding wash: HEPES 20 mM pH 7.5, MnCl2 10 mM, NaCl 30 mM (binding buffer itself not given). The conditions noted are these: protein: recombinant; tags: His6; chain copies: 2; label: 5' 32P; blunt.

Data set [2] has as its target T1, IntI1(His)6 integron integrase. Description: EMSA; filter binding; preincubated with dsattI1 (0.1 pmol); binding strongly increased, almost to bsattC level; EMSA: 0.1 pmol DNA, 1-15 pmol IntI1 in 20 µl, 20 min at 4°C, 1% agarose at 4°C; filter binding wash: HEPES 20 mM pH 7.5, MnCl2 10 mM, NaCl 30 mM (binding buffer itself not given). As to conditions: protein: recombinant; tags: His6; chain copies: 2; label: 5' 32P; blunt. (In EMSA bound probe runs differently from free probe, usually more slowly.)

B1: dsattI1 (dsDNA)
DNA 1: ACGCCGTGGGTCGATGTTTGATGTTATGGAGCAGCAACGATGTTACGCAGCAGGGCAGTCGCCCTAAAACAAAGTTAGGTGGCTCAATGAGCATCATTGC
DNA 2: GCAATGATGCTCATTGAGCCACCTAACTTTGTTTTAGGGCGACTGCCCTGCTGCGTAACATCGTTGCTGCTCCATAACATCAAACATCGACCCACGGCGT
Turning to B1, in data set [1], the binding result is on record as “binds”.

B2: dsattC (dsDNA)
DNA 1: CGCCCGTCTAACAATTCGTTCAAGCCGACGTTGCTTCGTGGCGGCGCTTGCGTGCTACGCTAAGCTTCGCACGCCGCTTGCCACTGCGCACCGCGGCTTAACTCAGGCGTTAGATGCACT
DNA 2: AGTGCATCTAACGCCTGAGTTAAGCCGCGGTGCGCAGTGGCAAGCGGCGTGCGAAGCTTAGCGTAGCACGCAAGCGCCGCCACGAAGCAACGTCGGCTTGAACGAATTGTTAGACGGGCG
On to B2, for which the binding result in data set [2] is listed as “binds”.
